Reference: patent US20240270846A1 (published 2024)

target: T1, CD3 epsilon homodimer protein (UniProt P07766 23-126); experiment: SPR Biacore T200, CD3e homodimer on chip, antibody analyte;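 note: CD3 epsilon homodimer amine-coupled on CM4 sensor chip, antibodies injected as analyte at 25 °C in HBS-EP+, ratio ≥0.8 taken as binding retained versus unaltered parent antibody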
T1 construct: Construct of the homodimer is not described; also called CD3 (CD3 epsilon)
T1 sequence (P07766 23-126): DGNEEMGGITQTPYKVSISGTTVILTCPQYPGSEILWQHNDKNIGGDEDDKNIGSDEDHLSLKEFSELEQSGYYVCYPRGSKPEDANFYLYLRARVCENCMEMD

Binder	ratio of amounts bound (altered form/GLS3000)
GLS3000 F55L one-arm antibody (antibody, human IgG1, kappa, L234A L235A, N297A, name in Kabat numbering) light: DIVMTQSPLSLPVTPGEPASISCRSSQSLVHSNRNTYLHWYQQKPGQAPRLLIYKVSNRLSGVPDRFSGSGSGTDFTLKISRVEAEDVGVYYCGQGTQVPYTFGQGTKLEIKRTVAAPSVFIFPPSDEQLKSGTASVVCLLNNFYPREAKVQWKVDNALQSGNSQESVTEQDSKDSTYSLSSTLTLSKADYEKHKVYACEVTHQGLSSPVTKSFNRGEC heavy: QVQLVESGGGVVQPGRSLRLSCAASGFTFSNAWMHWVRQAPGKGLEWVAQIKAKSNNYATYYAESVKGRFTISRDDSKNSLYLQMNSLKTEDTAVYYCRYVHYGAYYGVDAWGQGTTVTVSSASTKGPSVFPLAPSSKSTSGGTAALGCLVKDYFPEPVTVSWNSGALTSGVHTFPAVLQSSGLYSLSSVVTVPSSSLGTQTYICNVNHKPSNTKVDKKVEPKSCDKTHTCPPCPAPEAAGGPSVFLFPPKPKDTLMISRTPEVTCVVVDVSHEDPEVKFNWYVDGVEVHNAKTKPREEQYASTYRVVSVLTVLHQDWLNGKEYKCKVSNKALPAPIEKTISKAKGQPREPQVYTLPPSRCELTKNQVSLSCAVKGFYPSDIAVEWESNGQPENNYKTTPPVLDSDGSFFLVSKLTVDKSRWQQGNVFSCSVMHEALHNHYTQKSLSLSPDYKDDDDK EPKSSDKTHTCPPCPAPELLGGPSVFLFPPKPKDTLMISRTPEVTCVVVDVSHEDPEVKFNWYVDGVEVHNAKTKPREEQYNSTYRVVSVLTVLHQDWLNGKEYKCKVSNKALPAPIEKTISKAKGQPREPQVCTLPPSRDELTKNQVSLWCLVKGFYPSDIAVEWESNGQPENNYKTTPPVLDSDGSFFLYSKLTVDKSRWQQGNVFSCSVMHEALHNRYTQKSLSLSP	0.76
GLS3000 F55N one-arm antibody (antibody, human IgG1, kappa, L234A L235A, N297A, name in Kabat numbering) light: DIVMTQSPLSLPVTPGEPASISCRSSQSLVHSNRNTYLHWYQQKPGQAPRLLIYKVSNRNSGVPDRFSGSGSGTDFTLKISRVEAEDVGVYYCGQGTQVPYTFGQGTKLEIKRTVAAPSVFIFPPSDEQLKSGTASVVCLLNNFYPREAKVQWKVDNALQSGNSQESVTEQDSKDSTYSLSSTLTLSKADYEKHKVYACEVTHQGLSSPVTKSFNRGEC heavy: QVQLVESGGGVVQPGRSLRLSCAASGFTFSNAWMHWVRQAPGKGLEWVAQIKAKSNNYATYYAESVKGRFTISRDDSKNSLYLQMNSLKTEDTAVYYCRYVHYGAYYGVDAWGQGTTVTVSSASTKGPSVFPLAPSSKSTSGGTAALGCLVKDYFPEPVTVSWNSGALTSGVHTFPAVLQSSGLYSLSSVVTVPSSSLGTQTYICNVNHKPSNTKVDKKVEPKSCDKTHTCPPCPAPEAAGGPSVFLFPPKPKDTLMISRTPEVTCVVVDVSHEDPEVKFNWYVDGVEVHNAKTKPREEQYASTYRVVSVLTVLHQDWLNGKEYKCKVSNKALPAPIEKTISKAKGQPREPQVYTLPPSRCELTKNQVSLSCAVKGFYPSDIAVEWESNGQPENNYKTTPPVLDSDGSFFLVSKLTVDKSRWQQGNVFSCSVMHEALHNHYTQKSLSLSPDYKDDDDK EPKSSDKTHTCPPCPAPELLGGPSVFLFPPKPKDTLMISRTPEVTCVVVDVSHEDPEVKFNWYVDGVEVHNAKTKPREEQYNSTYRVVSVLTVLHQDWLNGKEYKCKVSNKALPAPIEKTISKAKGQPREPQVCTLPPSRDELTKNQVSLWCLVKGFYPSDIAVEWESNGQPENNYKTTPPVLDSDGSFFLYSKLTVDKSRWQQGNVFSCSVMHEALHNRYTQKSLSLSP	0.98
GLS3000 F55M one-arm antibody (antibody, human IgG1, kappa, L234A L235A, N297A, name in Kabat numbering) light: DIVMTQSPLSLPVTPGEPASISCRSSQSLVHSNRNTYLHWYQQKPGQAPRLLIYKVSNRMSGVPDRFSGSGSGTDFTLKISRVEAEDVGVYYCGQGTQVPYTFGQGTKLEIKRTVAAPSVFIFPPSDEQLKSGTASVVCLLNNFYPREAKVQWKVDNALQSGNSQESVTEQDSKDSTYSLSSTLTLSKADYEKHKVYACEVTHQGLSSPVTKSFNRGEC heavy: QVQLVESGGGVVQPGRSLRLSCAASGFTFSNAWMHWVRQAPGKGLEWVAQIKAKSNNYATYYAESVKGRFTISRDDSKNSLYLQMNSLKTEDTAVYYCRYVHYGAYYGVDAWGQGTTVTVSSASTKGPSVFPLAPSSKSTSGGTAALGCLVKDYFPEPVTVSWNSGALTSGVHTFPAVLQSSGLYSLSSVVTVPSSSLGTQTYICNVNHKPSNTKVDKKVEPKSCDKTHTCPPCPAPEAAGGPSVFLFPPKPKDTLMISRTPEVTCVVVDVSHEDPEVKFNWYVDGVEVHNAKTKPREEQYASTYRVVSVLTVLHQDWLNGKEYKCKVSNKALPAPIEKTISKAKGQPREPQVYTLPPSRCELTKNQVSLSCAVKGFYPSDIAVEWESNGQPENNYKTTPPVLDSDGSFFLVSKLTVDKSRWQQGNVFSCSVMHEALHNHYTQKSLSLSPDYKDDDDK EPKSSDKTHTCPPCPAPELLGGPSVFLFPPKPKDTLMISRTPEVTCVVVDVSHEDPEVKFNWYVDGVEVHNAKTKPREEQYNSTYRVVSVLTVLHQDWLNGKEYKCKVSNKALPAPIEKTISKAKGQPREPQVCTLPPSRDELTKNQVSLWCLVKGFYPSDIAVEWESNGQPENNYKTTPPVLDSDGSFFLYSKLTVDKSRWQQGNVFSCSVMHEALHNRYTQKSLSLSP	0.8
GLS3000 F55R one-arm antibody (antibody, human IgG1, kappa, L234A L235A, N297A, name in Kabat numbering) light: DIVMTQSPLSLPVTPGEPASISCRSSQSLVHSNRNTYLHWYQQKPGQAPRLLIYKVSNRRSGVPDRFSGSGSGTDFTLKISRVEAEDVGVYYCGQGTQVPYTFGQGTKLEIKRTVAAPSVFIFPPSDEQLKSGTASVVCLLNNFYPREAKVQWKVDNALQSGNSQESVTEQDSKDSTYSLSSTLTLSKADYEKHKVYACEVTHQGLSSPVTKSFNRGEC heavy: QVQLVESGGGVVQPGRSLRLSCAASGFTFSNAWMHWVRQAPGKGLEWVAQIKAKSNNYATYYAESVKGRFTISRDDSKNSLYLQMNSLKTEDTAVYYCRYVHYGAYYGVDAWGQGTTVTVSSASTKGPSVFPLAPSSKSTSGGTAALGCLVKDYFPEPVTVSWNSGALTSGVHTFPAVLQSSGLYSLSSVVTVPSSSLGTQTYICNVNHKPSNTKVDKKVEPKSCDKTHTCPPCPAPEAAGGPSVFLFPPKPKDTLMISRTPEVTCVVVDVSHEDPEVKFNWYVDGVEVHNAKTKPREEQYASTYRVVSVLTVLHQDWLNGKEYKCKVSNKALPAPIEKTISKAKGQPREPQVYTLPPSRCELTKNQVSLSCAVKGFYPSDIAVEWESNGQPENNYKTTPPVLDSDGSFFLVSKLTVDKSRWQQGNVFSCSVMHEALHNHYTQKSLSLSPDYKDDDDK EPKSSDKTHTCPPCPAPELLGGPSVFLFPPKPKDTLMISRTPEVTCVVVDVSHEDPEVKFNWYVDGVEVHNAKTKPREEQYNSTYRVVSVLTVLHQDWLNGKEYKCKVSNKALPAPIEKTISKAKGQPREPQVCTLPPSRDELTKNQVSLWCLVKGFYPSDIAVEWESNGQPENNYKTTPPVLDSDGSFFLYSKLTVDKSRWQQGNVFSCSVMHEALHNRYTQKSLSLSP	1.31
GLS3000 F55P one-arm antibody (antibody, human IgG1, kappa, L234A L235A, N297A, name in Kabat numbering) light: DIVMTQSPLSLPVTPGEPASISCRSSQSLVHSNRNTYLHWYQQKPGQAPRLLIYKVSNRPSGVPDRFSGSGSGTDFTLKISRVEAEDVGVYYCGQGTQVPYTFGQGTKLEIKRTVAAPSVFIFPPSDEQLKSGTASVVCLLNNFYPREAKVQWKVDNALQSGNSQESVTEQDSKDSTYSLSSTLTLSKADYEKHKVYACEVTHQGLSSPVTKSFNRGEC heavy: QVQLVESGGGVVQPGRSLRLSCAASGFTFSNAWMHWVRQAPGKGLEWVAQIKAKSNNYATYYAESVKGRFTISRDDSKNSLYLQMNSLKTEDTAVYYCRYVHYGAYYGVDAWGQGTTVTVSSASTKGPSVFPLAPSSKSTSGGTAALGCLVKDYFPEPVTVSWNSGALTSGVHTFPAVLQSSGLYSLSSVVTVPSSSLGTQTYICNVNHKPSNTKVDKKVEPKSCDKTHTCPPCPAPEAAGGPSVFLFPPKPKDTLMISRTPEVTCVVVDVSHEDPEVKFNWYVDGVEVHNAKTKPREEQYASTYRVVSVLTVLHQDWLNGKEYKCKVSNKALPAPIEKTISKAKGQPREPQVYTLPPSRCELTKNQVSLSCAVKGFYPSDIAVEWESNGQPENNYKTTPPVLDSDGSFFLVSKLTVDKSRWQQGNVFSCSVMHEALHNHYTQKSLSLSPDYKDDDDK EPKSSDKTHTCPPCPAPELLGGPSVFLFPPKPKDTLMISRTPEVTCVVVDVSHEDPEVKFNWYVDGVEVHNAKTKPREEQYNSTYRVVSVLTVLHQDWLNGKEYKCKVSNKALPAPIEKTISKAKGQPREPQVCTLPPSRDELTKNQVSLWCLVKGFYPSDIAVEWESNGQPENNYKTTPPVLDSDGSFFLYSKLTVDKSRWQQGNVFSCSVMHEALHNRYTQKSLSLSP	1.16
GLS3000 F55Q one-arm antibody (antibody, human IgG1, kappa, L234A L235A, N297A, name in Kabat numbering) light: DIVMTQSPLSLPVTPGEPASISCRSSQSLVHSNRNTYLHWYQQKPGQAPRLLIYKVSNRQSGVPDRFSGSGSGTDFTLKISRVEAEDVGVYYCGQGTQVPYTFGQGTKLEIKRTVAAPSVFIFPPSDEQLKSGTASVVCLLNNFYPREAKVQWKVDNALQSGNSQESVTEQDSKDSTYSLSSTLTLSKADYEKHKVYACEVTHQGLSSPVTKSFNRGEC heavy: QVQLVESGGGVVQPGRSLRLSCAASGFTFSNAWMHWVRQAPGKGLEWVAQIKAKSNNYATYYAESVKGRFTISRDDSKNSLYLQMNSLKTEDTAVYYCRYVHYGAYYGVDAWGQGTTVTVSSASTKGPSVFPLAPSSKSTSGGTAALGCLVKDYFPEPVTVSWNSGALTSGVHTFPAVLQSSGLYSLSSVVTVPSSSLGTQTYICNVNHKPSNTKVDKKVEPKSCDKTHTCPPCPAPEAAGGPSVFLFPPKPKDTLMISRTPEVTCVVVDVSHEDPEVKFNWYVDGVEVHNAKTKPREEQYASTYRVVSVLTVLHQDWLNGKEYKCKVSNKALPAPIEKTISKAKGQPREPQVYTLPPSRCELTKNQVSLSCAVKGFYPSDIAVEWESNGQPENNYKTTPPVLDSDGSFFLVSKLTVDKSRWQQGNVFSCSVMHEALHNHYTQKSLSLSPDYKDDDDK EPKSSDKTHTCPPCPAPELLGGPSVFLFPPKPKDTLMISRTPEVTCVVVDVSHEDPEVKFNWYVDGVEVHNAKTKPREEQYNSTYRVVSVLTVLHQDWLNGKEYKCKVSNKALPAPIEKTISKAKGQPREPQVCTLPPSRDELTKNQVSLWCLVKGFYPSDIAVEWESNGQPENNYKTTPPVLDSDGSFFLYSKLTVDKSRWQQGNVFSCSVMHEALHNRYTQKSLSLSP	0.91
